Experimental data reported in patent US20240400654A1.
Positions count from the first letter of the chain named. Names and notes keep the numbering of the source. Values joined by “and” are separate entries in the source; they are usually repeats but may differ in a detail not shown here. Equal entries are not always repeated.

B1: KB001 mouse Fab VH K64M (Fab, V domains shown)
VH: EVQLKQSGPGLVAPSQSLSITCTVSGFSLSIYSVHWVRQPPGKGLEWLGMIWGGGSSDYNSALMSRLSISKDNSKSQVFLKMNSLQTDDTAMYYCARNGNFYAMDYWGQGTSVTVSS
VL: QIVLTQSPAIMSASLGERVTMTCTASSSVSSSFLHWYQQKPGSSPQLWIYSTSNLASGVPARFSGSGSGTSYSLTISSMEAEDAATYYCHQYHHSPYIYTFGGGTKLEIK
B2: KB001 mouse Fab VH A62M (Fab, V domains shown)
VH: B1 VH with A62M, M64K
VL: B1 VL
B3: KB001 mouse Fab VH A62Q (Fab, V domains shown)
VH: B1 VH with A62Q, M64K
VL: B1 VL
B4: KB001 mouse Fab VH A62L (Fab, V domains shown)
VH: B1 VH with A62L, M64K
VL: B1 VL
B5: KB001 mouse Fab VH L63V (Fab, V domains shown)
VH: B1 VH with L63V, M64K
VL: B1 VL
B6: KB001 mouse Fab VH A62G (Fab, V domains shown)
VH: B1 VH with A62G, M64K
VL: B1 VL
B7: KB001 mouse Fab VH A62R (Fab, V domains shown)
VH: B1 VH with A62R, M64K
VL: B1 VL
B8: KB001 mouse Fab VH A62F (Fab, V domains shown)
VH: B1 VH with A62F, M64K
VL: B1 VL
B9: KB001 mouse Fab VH K64H (Fab, V domains shown)
VH: B1 VH with M64H
VL: B1 VL
B10: KB001 mouse Fab VH A62V (Fab, V domains shown)
VH: B1 VH with A62V, M64K
VL: B1 VL
B11: KB001 mouse Fab VH A62E (Fab, V domains shown)
VH: B1 VH with A62E, M64K
VL: B1 VL
B12: KB001 mouse Fab VH L63H (Fab, V domains shown)
VH: B1 VH with L63H, M64K
VL: B1 VL
B13: KB001 mouse Fab VH A62H (Fab, V domains shown)
VH: B1 VH with A62H, M64K
VL: B1 VL
B14: KB001 mouse Fab VH K64G (Fab, V domains shown)
VH: B1 VH with M64G
VL: B1 VL
B15: KB001 mouse Fab VH S61H (Fab, V domains shown)
VH: B1 VH with S61H, M64K
VL: B1 VL
B16: KB001 mouse Fab VH S61C (Fab, V domains shown)
VH: B1 VH with S61C, M64K
VL: B1 VL
B17: KB001 mouse Fab VH A62N (Fab, V domains shown)
VH: B1 VH with A62N, M64K
VL: B1 VL
B18: KB001 mouse Fab VH L63F (Fab, V domains shown)
VH: B1 VH with L63F, M64K
VL: B1 VL
B19: KB001 mouse Fab VL T100D (Fab, V domains shown)
VH: B1 VH with M64K
VL: B1 VL with T100D
B20: KB001 mouse Fab VH L63Y (Fab, V domains shown)
VH: B1 VH with L63Y, M64K
VL: B1 VL
B21: KB001 mouse Fab VH K64V (Fab, V domains shown)
VH: B1 VH with M64V
VL: B1 VL
B22: KB001 mouse Fab VH K64I (Fab, V domains shown)
VH: B1 VH with M64I
VL: B1 VL
B23: KB001 mouse Fab VH A62I (Fab, V domains shown)
VH: B1 VH with A62I, M64K
VL: B1 VL
B24: KB001 mouse Fab VL T100K (Fab, V domains shown)
VH: B1 VH with M64K
VL: B1 VL with T100K
B25: KB001 mouse Fab VH S61K (Fab, V domains shown)
VH: B1 VH with S61K, M64K
VL: B1 VL
B26: KB001 mouse Fab VH S61L (Fab, V domains shown)
VH: B1 VH with S61L, M64K
VL: B1 VL
B27: KB001 mouse Fab VH A62D (Fab, V domains shown)
VH: B1 VH with A62D, M64K
VL: B1 VL
B28: KB001 mouse Fab VH K64Y (Fab, V domains shown)
VH: B1 VH with M64Y
VL: B1 VL
B29: KB001 mouse Fab VH K64S (Fab, V domains shown)
VH: B1 VH with M64S
VL: B1 VL
B30: KB001 mouse Fab VH L63M (Fab, V domains shown)
VH: B1 VH with L63M, M64K
VL: B1 VL
B31: KB001 mouse Fab variant VL L55R/S51G (Fab, V domains shown)
VH: B1 VH with M64K
VL: B1 VL with S51G, L55R
B32: KB001 mouse Fab variant VL L55Q (Fab, V domains shown)
VH: B1 VH with M64K
VL: B1 VL with L55Q
B33: KB001 mouse Fab variant VL A56Q (Fab, V domains shown)
VH: B1 VH with M64K
VL: B1 VL with A56Q
B34: KB001 mouse Fab variant VL A56P (Fab, V domains shown)
VH: B1 VH with M64K
VL: B1 VL with A56P
B35: KB001 mouse Fab variant VL A56N (Fab, V domains shown)
VH: B1 VH with M64K
VL: B1 VL with A56N
B36: KB001 mouse Fab variant VL L55H (Fab, V domains shown)
VH: B1 VH with M64K
VL: B1 VL with L55H
B37: KB001 mouse Fab variant VL A56V (Fab, V domains shown)
VH: B1 VH with M64K
VL: B1 VL with A56V
B38: KB001 mouse Fab variant VL A56S (Fab, V domains shown)
VH: B1 VH with M64K
VL: B1 VL with A56S
B39: KB001 mouse Fab variant VL A56T (Fab, V domains shown)
VH: B1 VH with M64K
VL: B1 VL with A56T
B40: KB001 mouse Fab variant VL L55S (Fab, V domains shown)
VH: B1 VH with M64K
VL: B1 VL with L55S
B41: KB001 mouse Fab variant VL A56R (Fab, V domains shown)
VH: B1 VH with M64K
VL: B1 VL with A56R

target: HRgpA-6H (Porphyromonas gingivalis) (UniProt P28784); assay: ELISA, coated HRgpA-6H
Chain of UniProt P28784 (P28784 228-860 limits assumed): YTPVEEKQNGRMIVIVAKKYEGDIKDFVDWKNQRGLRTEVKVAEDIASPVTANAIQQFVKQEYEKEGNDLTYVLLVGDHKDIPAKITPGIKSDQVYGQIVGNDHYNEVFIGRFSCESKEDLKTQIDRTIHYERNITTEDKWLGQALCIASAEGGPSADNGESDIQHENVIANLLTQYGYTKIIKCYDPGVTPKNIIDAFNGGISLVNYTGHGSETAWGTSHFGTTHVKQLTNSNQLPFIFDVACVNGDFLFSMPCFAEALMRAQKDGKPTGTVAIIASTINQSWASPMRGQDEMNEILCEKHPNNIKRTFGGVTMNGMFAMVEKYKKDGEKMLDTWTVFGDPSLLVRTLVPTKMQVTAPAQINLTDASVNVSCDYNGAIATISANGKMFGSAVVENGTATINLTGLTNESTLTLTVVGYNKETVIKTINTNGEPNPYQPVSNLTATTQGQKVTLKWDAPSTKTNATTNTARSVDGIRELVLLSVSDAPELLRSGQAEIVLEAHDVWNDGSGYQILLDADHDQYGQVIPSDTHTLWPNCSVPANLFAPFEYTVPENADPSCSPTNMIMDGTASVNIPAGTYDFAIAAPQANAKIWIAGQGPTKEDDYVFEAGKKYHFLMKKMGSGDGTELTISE

| Binder | OD450 nm | Ratio OD(Variant)/OD(WT) |
| --- | --- | --- |
| B1 | 0.799 and 0.757 and 0.78 | 0.966 and 0.915 and 0.943 |
| B2 | 0.77 and 0.735 | 0.881 and 0.841 |
| B3 | 0.737 and 0.869 | 0.843 and 0.994 |
| B4 | 0.812 | 0.929 |
| B5 | 0.784 and 0.77 and 0.778 | 0.897 and 0.881 and 0.89 |
| B6 | 0.813 and 0.785 | 0.93 and 0.898 |
| B7 | 0.733 and 0.847 and 0.809 | 0.839 and 0.969 and 0.926 |
| B8 | 0.843 and 0.733 | 0.965 and 0.839 |
| B9 | 0.752 | 0.909 |
| B10 | 0.742 and 0.757 | 0.849 and 0.866 |
| B11 | 0.854 | 0.977 |
| B12 | 0.818 and 0.843 and 0.822 | 0.936 and 0.965 and 0.941 |
| B13 | 0.819 and 0.834 and 0.844 | 0.937 and 0.954 and 0.966 |
| B14 | 0.806 | 0.975 |
| B15 | 0.469 | 0.95 |
| B16 | 0.431 | 0.873 |
| B17 | 0.721 and 0.799 | 0.825 and 0.914 |
| B18 | 0.743 | 0.85 |
| B19 | 0.645 | 1.23 |
| B20 | 0.836 and 0.846 and 0.801 | 0.957 and 0.968 and 0.916 |
| B21 | 0.715 and 0.714 | 0.865 and 0.863 |
| B22 | 0.743 and 0.756 and 0.715 | 0.898 and 0.914 and 0.865 |
| B23 | 0.702 and 0.808 | 0.803 and 0.924 |
| B24 | 0.625 | 1.19 |
| B25 | 0.49 | 0.993 |
| B26 | 0.448 | 0.908 |
| B27 | 0.853 and 0.851 | 0.976 and 0.974 |
| B28 | 0.763 | 0.923 |
| B29 | 0.808 | 0.977 |
| B30 | 0.8 | 0.915 |

target: HRgpA-6H (Porphyromonas gingivalis) (UniProt P28784); assay: ELISA, FASEBA Fab supernatant on coated HRgpA-6H

| Binder | OD450 nm |
| --- | --- |
| B31 | 0.748 |
| B32 | 0.662 |
| B33 | 0.705 |
| B34 | 0.748 |
| B35 | 0.712 and 0.775 |
| B36 | 0.64 |
| B37 | 0.794 and 0.795 |
| B38 | 0.772 and 0.751 and 0.774 |
| B39 | 0.731 |
| B40 | 0.655 |
| B41 | 0.728 and 0.734 and 0.751 |

target: HRgpA-6H (Porphyromonas gingivalis) (UniProt P28784); assay: ELISA on coated HRgpA-6H, OD relative to parental Fab

| Binder | Ratio OD(Variant)/OD(WT) |
| --- | --- |
| B31 | 0.955 fold |
| B32 | 0.845 fold |
| B33 | 0.865 fold |
| B34 | 0.917 fold |
| B35 | 0.873 fold and 0.95 fold |
| B36 | 0.817 fold |
| B37 | 0.974 fold and 0.975 fold |
| B38 | 0.947 fold and 0.921 fold and 0.949 fold |
| B39 | 0.896 fold |
| B40 | 0.836 fold |
| B41 | 0.893 fold and 0.9 fold and 0.921 fold |
